Measurements as given in the supplement of paper PMC7877785.
± gives the uncertainty stated by the source.

Assay: self-splicing fitness, log relative to wild type (ln ratio); higher = more splicing; Tetrahymena group I intron in knt gene, E. coli kanamycin selection, DiMSum; sequences stand for … in CUCUCU…GGAGGGAAAAGUUAUCAGGCAUGCACCUGGUAGCUAGUCUUUAAACCAAUAGAUUGCAUCGGUUUAAAAGGCAAGACCGUCAAAUUGCGGGAAAGGGGUCAACAGCCGUUCAGUACCAAGUCUCAGGGGAAACUUUGAGAUGGCCUUGCAAAGGGUAUGGUAAUAAGCUGACGGACAUGGUCCUAACCACGCAGCCAAGUCCUAAGUCAACAGAUCUUCUGUUGAUAUGGAUGCAGUUCACAGACUAAAUGUCGGUCGGGGAAGAUGUAUUCUUCUCAUAAGAUAUAGUCGGACCUCUCCUUAAUGGGAGCUAGCGGAUGAAGUGAUGCAACACUGGAGCCGCUGGGAACUAAUUUGUAUGCGAAAGUAUAUUGAUUAGUUUUGGAGUACUCGUGGUCG
Outline: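 A randomised library covering all eight P1ex-region intron nucleotides was built with the intron in the knt kanamycin-resistance gene on pET-22b(+) and held in E. coli BL21(DE3). Cells were grown overnight at 37°C or 30°C on LB agar, with or without 25 μg/mL kanamycin, plus 100 μg/mL carbenicillin, 50 μM IPTG and 0.2% rhamnose, and pooled colonies were amplicon-sequenced on an Illumina HiSeq 2500. DiMSum fitness is the error-weighted combination of wild-type-normalised replicate fold changes, kanamycin versus none.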

Sequence: GGGAAGCAAUAUUACGUGCA
- self-splicing fitness (ln) (30 °C): -1.36 ± 0.1
- self-splicing fitness (ln) (37 °C): 0.0267 ± 0.12

Sequence: CCUAAGCAAUAUUACGUCGG
- self-splicing fitness (ln) (30 °C): -2.3 ± 0.29
- self-splicing fitness (ln) (37 °C): -1.51 ± 0.24

Sequence: GACUAGCAAUAUUACGGAAU
- self-splicing fitness (ln) (30 °C): -2.12 ± 0.12
- self-splicing fitness (ln) (37 °C): -1.91 ± 0.14

Sequence: AACGAGCAAUAUUACGCUAU
- self-splicing fitness (ln) (30 °C): -3.9 ± 0.24
- self-splicing fitness (ln) (37 °C): -2.18 ± 0.23

Sequence: UAACAGCAAUAUUACGAUUC
- self-splicing fitness (ln) (30 °C): -1.68 ± 0.1
- self-splicing fitness (ln) (37 °C): -1.01 ± 0.12

Sequence: AGUCAGCAAUAUUACGCACG
- self-splicing fitness (ln) (30 °C): -1.02 ± 0.12
- self-splicing fitness (ln) (37 °C): -0.646 ± 0.15

Sequence: CCGCAGCAAUAUUACGGCCA
- self-splicing fitness (ln) (30 °C): -4.11 ± 0.31
- self-splicing fitness (ln) (37 °C): -2.51 ± 0.26

Sequence: UUAGAGCAAUAUUACGAACU
- self-splicing fitness (ln) (37 °C): -1.92 ± 0.43

Sequence: AGACAGCAAUAUUACGAUCC
- self-splicing fitness (ln) (30 °C): -0.233 ± 0.083
- self-splicing fitness (ln) (37 °C): -0.102 ± 0.11

Sequence: AUCGAGCAAUAUUACGGGAA
- self-splicing fitness (ln) (30 °C): -2.59 ± 0.24
- self-splicing fitness (ln) (37 °C): -2.4 ± 0.22

Sequence: UCUUAGCAAUAUUACGAAGG
- self-splicing fitness (ln) (30 °C): -2 ± 0.39
- self-splicing fitness (ln) (37 °C): 1.19 ± 0.23

Sequence: UGGCAGCAAUAUUACGGGUU
- self-splicing fitness (ln) (30 °C): -3.09 ± 0.14
- self-splicing fitness (ln) (37 °C): -2.45 ± 0.14

Sequence: CUGAAGCAAUAUUACGACGC
- self-splicing fitness (ln) (30 °C): -3.78 ± 0.35

Sequence: CGUAAGCAAUAUUACGCACC
- self-splicing fitness (ln) (37 °C): -0.957 ± 0.39

Sequence: UAGCAGCAAUAUUACGGCAG
- self-splicing fitness (ln) (30 °C): -0.659 ± 0.1
- self-splicing fitness (ln) (37 °C): 0.546 ± 0.13

Sequence: GAGGAGCAAUAUUACGAGCG
- self-splicing fitness (ln) (30 °C): -3.24 ± 0.35
- self-splicing fitness (ln) (37 °C): -1.55 ± 0.28

Sequence: ACUCAGCAAUAUUACGCUGG
- self-splicing fitness (ln) (30 °C): -2.43 ± 0.12
- self-splicing fitness (ln) (37 °C): -2.86 ± 0.22

Sequence: UCAUAGCAAUAUUACGGUGU
- self-splicing fitness (ln) (30 °C): -3.51 ± 0.21
- self-splicing fitness (ln) (37 °C): -1.27 ± 0.13

Sequence: GACAAGCAAUAUUACGGUUC
- self-splicing fitness (ln) (30 °C): -3.57 ± 0.16
- self-splicing fitness (ln) (37 °C): -2.81 ± 0.32

Sequence: UGACAGCAAUAUUACGCAAC
- self-splicing fitness (ln) (30 °C): -2.25 ± 0.29
- self-splicing fitness (ln) (37 °C): -1.24 ± 0.25

Sequence: GGCAAGCAAUAUUACGACGA
- self-splicing fitness (ln) (30 °C): -1.37 ± 0.099
- self-splicing fitness (ln) (37 °C): -0.167 ± 0.11

Sequence: AAUGAGCAAUAUUACGCAAU
- self-splicing fitness (ln) (30 °C): -2.49 ± 0.23
- self-splicing fitness (ln) (37 °C): -2.25 ± 0.25

Sequence: GGCUAGCAAUAUUACGAAGA
- self-splicing fitness (ln) (30 °C): -2.05 ± 0.43
- self-splicing fitness (ln) (37 °C): -0.778 ± 0.36

Sequence: GCAGAGCAAUAUUACGCUAG
- self-splicing fitness (ln) (30 °C): -1.83 ± 0.44
- self-splicing fitness (ln) (37 °C): -1.79 ± 0.2

Sequence: AUUCAGCAAUAUUACGUACC
- self-splicing fitness (ln) (30 °C): -0.843 ± 0.061
- self-splicing fitness (ln) (37 °C): -0.514 ± 0.089

Sequence: GAAGAGCAAUAUUACGAAAG
- self-splicing fitness (ln) (30 °C): -4.13 ± 0.31
- self-splicing fitness (ln) (37 °C): -2.41 ± 0.18

Sequence: UAUUAGCAAUAUUACGUGAU
- self-splicing fitness (ln) (30 °C): -2.82 ± 0.17
- self-splicing fitness (ln) (37 °C): -1.99 ± 0.18

Sequence: CACAAGCAAUAUUACGCAGC
- self-splicing fitness (ln) (30 °C): -3.48 ± 0.29

Sequence: UUGGAGCAAUAUUACGAGGU
- self-splicing fitness (ln) (30 °C): -2.02 ± 0.47

Sequence: CUUGAGCAAUAUUACGAAAC
- self-splicing fitness (ln) (30 °C): -4 ± 0.33
- self-splicing fitness (ln) (37 °C): -2.78 ± 0.36

Sequence: ACUGAGCAAUAUUACGUGGA
- self-splicing fitness (ln) (30 °C): -2.94 ± 0.2
- self-splicing fitness (ln) (37 °C): -2.88 ± 0.2

Sequence: UCGUAGCAAUAUUACGACGG
- self-splicing fitness (ln) (30 °C): -2.04 ± 0.2
- self-splicing fitness (ln) (37 °C): -0.573 ± 0.19

Sequence: UUAAAGCAAUAUUACGUGCU
- self-splicing fitness (ln) (30 °C): -1.16 ± 0.082
- self-splicing fitness (ln) (37 °C): -0.057 ± 0.12

Sequence: ACACAGCAAUAUUACGACGC
- self-splicing fitness (ln) (30 °C): -0.0854 ± 0.07
- self-splicing fitness (ln) (37 °C): 0.622 ± 0.093

Sequence: CGGUAGCAAUAUUACGACUA
- self-splicing fitness (ln) (30 °C): -0.298 ± 0.14
- self-splicing fitness (ln) (37 °C): 0.0316 ± 0.16

Sequence: GGCGAGCAAUAUUACGGUAC
- self-splicing fitness (ln) (30 °C): -2.08 ± 0.17
- self-splicing fitness (ln) (37 °C): -1.98 ± 0.19

Sequence: CAGGAGCAAUAUUACGAUUU
- self-splicing fitness (ln) (30 °C): -3.81 ± 0.28
- self-splicing fitness (ln) (37 °C): -0.961 ± 0.13

Sequence: CUCUAGCAAUAUUACGGCGC
- self-splicing fitness (ln) (30 °C): -2.53 ± 0.28
- self-splicing fitness (ln) (37 °C): -3.04 ± 0.43

Sequence: ACAGAGCAAUAUUACGAUUU
- self-splicing fitness (ln) (30 °C): -3.03 ± 0.14
- self-splicing fitness (ln) (37 °C): -1.71 ± 0.13

Sequence: AGAUAGCAAUAUUACGGAGU
- self-splicing fitness (ln) (30 °C): -3.25 ± 0.15
- self-splicing fitness (ln) (37 °C): -2.33 ± 0.15

Sequence: AACGAGCAAUAUUACGACAA
- self-splicing fitness (ln) (30 °C): -2.78 ± 0.24
- self-splicing fitness (ln) (37 °C): -0.872 ± 0.18

Sequence: GGAGAGCAAUAUUACGUUGA
- self-splicing fitness (ln) (37 °C): -1.97 ± 0.42

Sequence: UCUGAGCAAUAUUACGGAUU
- self-splicing fitness (ln) (30 °C): -3.51 ± 0.26
- self-splicing fitness (ln) (37 °C): -1.72 ± 0.23

Sequence: GUUAAGCAAUAUUACGCUGG
- self-splicing fitness (ln) (30 °C): -0.613 ± 0.17
- self-splicing fitness (ln) (37 °C): -0.0646 ± 0.2

Sequence: AUUAAGCAAUAUUACGCAUG
- self-splicing fitness (ln) (30 °C): -1.09 ± 0.08
- self-splicing fitness (ln) (37 °C): -0.301 ± 0.11

Sequence: UCUUAGCAAUAUUACGGGAU
- self-splicing fitness (ln) (30 °C): -3.65 ± 0.33
- self-splicing fitness (ln) (37 °C): -2.65 ± 0.36

Sequence: UCUUAGCAAUAUUACGAGGA
- self-splicing fitness (ln) (30 °C): -2.34 ± 0.19
- self-splicing fitness (ln) (37 °C): -1.58 ± 0.19

Sequence: UGCCAGCAAUAUUACGCAGG
- self-splicing fitness (ln) (30 °C): -4.43 ± 0.33
- self-splicing fitness (ln) (37 °C): -3.14 ± 0.28

Sequence: CACCAGCAAUAUUACGUAGG
- self-splicing fitness (ln) (30 °C): -0.739 ± 0.05
- self-splicing fitness (ln) (37 °C): -0.0785 ± 0.074
